Data: the supplement of paper PMC10724198
± gives the standard deviation of the averaged measurements.

test system: Saccharomyces cerevisiae; experiment: protein stability index of tFT-peptide fusion (C-terminal peptide) (PSI (0-1 scale)); higher = more stable (slower turnover); settings: genetic background: wild type; temperature: 30 C
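Also: PSI is a weighted mean of sequencing reads over stability bins, variants kept only with over 10 reads, mCherry proximal and sfGFP distal, peptide attached via GGGS linker.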

| Sequence | protein stability index |
| --- | --- |
| RVCDSAPKRNRH | 0.676 ± 0.018 |
| RVCLVVWRECWF | 0.509 ± 0.0082 |
| RVCYRAELSAMS | 0.559 ± 0.045 |
| RVDGDFDYPRVV | 0.82 ± 0.11 |
| RVDLPFDRSVSD | 0.702 ± 0.057 |
| RVEADMKKRWTG | 0.716 ± 0.028 |
| RVGGPGNRGGVV | 0.696 ± 0.058 |
| RVGRCYPSIVRS | 0.6522 ± 0.0042 |
| RVGRKGRRRGSR | 0.767 ± 0.07 |
| RVGTGFVGYSFS | 0.679 ± 0.13 |
| RVGVEYGETGGG | 0.732 ± 0.29 |
| RVIHLRKIHYEE | 0.6728 ± 0.005 |
| RVLCYHFSPGVV | 0.656 ± 0.057 |
| RVLPPAPLQALQ | 0.645 ± 0.018 |
| RVLWVELGSWGG | 0.708 ± 0.045 |
| RVMPRVNDKKGI | 0.732 ± 0.092 |
| RVNQRRATSEKT | 0.677 ± 0.0082 |
| RVRDPQQISILL | 0.65 ± 0.025 |
| RVRGAPGLRHES | 0.5 ± 0.1 |
| RVRWLRGVPGGL | 0.635 ± 0.09 |
| RVVCGGMGVRRG | 0.63 ± 0.077 |
| RVVFHPFVQSLF | 0.62 ± 0.028 |
| RVVGLWGSACMG | 0.603 ± 0.01 |

| Sequence | protein stability index |
| --- | --- |
| RVWFWSGRGGEF | 0.709 ± 0.1 |
| RWAMGAAGGLQA | 0.697 ± 0.021 |
| RWFGRFSFCLFF | 0.5 ± 0.055 |
| RWGPGAVWGRGR | 0.707 ± 0.068 |
| RWGWWGYRGGVP | 0.744 ± 0.025 |
| RWIPRMSFSESQ | 0.666 ± 0.0097 |
| RWLGGTGGWKSR | 0.673 ± 0.041 |
| RWPQNRGRVSKP | 0.747 ± 0.017 |
| RWVGWGAWLSEV | 0.611 ± 0.02 |
| RWVNNKKTKGQD | 0.767 ± 0.042 |
| RWVWRNRSGGGE | 0.636 ± 0.043 |
| RYELSLRLYGSL | 0.623 ± 0.089 |
| RYFISAHPGGIA | 0.66 ± 0.02 |
| RYGHSRLCLGFR | 0.657 ± 0.12 |
| RYHPRSHVLGRD | 0.682 ± 0.063 |
| RYKALEAQGPRF | 0.717 ± 0.0008 |
| RYLAEKAVLTHN | 0.659 ± 0.012 |
| RYSPFSFLASLP | 0.732 ± 0.049 |
| SACCNFAPAFGQ | 0.662 ± 0.019 |
| SADGIVSQVTCL | 0.693 ± 0.031 |
| SAFDVLCHVVVG | 0.634 ± 0.021 |
| SAFPGGCCSILL | 0.709 ± 0.022 |
| SAHPFLPLFSPP | 0.718 ± 0.012 |

| Sequence | protein stability index |
| --- | --- |
| SALEVSPSNGSF | 0.598 ± 0.015 |
| SALTPCPPPYSH | 0.668 ± 0.032 |
| SALVLVLPSIPP | 0.649 ± 0.024 |
| SANCQQSRMFIT | 0.623 ± 0.044 |
| SAPILPPQSSSP | 0.749 ± 0.035 |
| SAPLVSLHLSPL | 0.68 ± 0.011 |
| SAPPDVAPLFSP | 0.74 ± 0.053 |
| SAQPELPNIAPA | 0.636 ± 0.049 |
| SARQCWFSLSDD | 0.639 ± 0.043 |
| SATPFSTEVCPL | 0.631 ± 0.028 |
| SATSFLAAGPPT | 0.6957 ± 0.0063 |
| SAVPFLRASRNA | 0.693 ± 0.034 |
| SAWTPPLCLLPP | 0.711 ± 0.043 |
| SCCPPSRTFFPS | 0.734 ± 0.0078 |
| SCHPDPTRKSPN | 0.7159 ± 0.0035 |
| SCIFRGNPFLLL | 0.711 ± 0.018 |
| SCIIWPAKGCPF | 0.687 ± 0.054 |
| SCLATDSWLAFV | 0.665 ± 0.058 |
| SCNILPRFSPLL | 0.723 ± 0.033 |
| SCSICLWVGHGC | 0.656 ± 0.028 |
| SCTDIGWIMRDI | 0.673 ± 0.061 |
| SCYRSCGALLSA | 0.694 ± 0.011 |
| SDFAPTRPPPAP | 0.634 ± 0.051 |

| Sequence | protein stability index |
| --- | --- |
| SDGEHIYPESYR | 0.695 ± 0.023 |
| SDGVSLRSFCWL | 0.697 ± 0.035 |
| SDKRMGSLQMSS | 0.712 ± 0.033 |
| SDKVKRYISTTL | 0.637 ± 0.023 |
| SDLPPCPSRPSP | 0.661 ± 0.11 |
| SDQEIKKSQCGG | 0.659 ± 0.047 |
| SDQPTWTAQTSN | 0.783 ± 0.025 |
| SDRSLPGVPVRF | 0.7234 ± 0.0048 |
| SDVRANAYRPEH | 0.688 ± 0.042 |
| SEAHMGWRGGEK | 0.643 ± 0.1 |
| SEDGPTPAPSTD | 0.71 ± 0.059 |
| SEDLSNNMKQDI | 0.688 ± 0.026 |
| SEEAQRKRNTLK | 0.6715 ± 0.0051 |
| SEGLFSVLYIWM | 0.687 ± 0.16 |
| SEGSRGYLLEIQ | 0.69 ± 0.029 |
| SENEGEGIYVRM | 0.672 ± 0.065 |
| SENKRKEHRMSF | 0.712 ± 0.05 |
| SESLLSQPIVLV | 0.647 ± 0.017 |
| SEVRGRERLAKC | 0.662 ± 0.041 |
| SFATSELRAGNN | 0.701 ± 0.17 |
| SFCGVLCIRACF | 0.623 ± 0.026 |
| SFCSSVFWFFWL | 0.584 ± 0.037 |
| SFCYFSCPSLIM | 0.718 ± 0.11 |

| Sequence | protein stability index |
| --- | --- |
| SFFFRSYCFPAP | 0.7169 ± 0.0037 |
| SFFGPLADEIID | 0.73 ± 0.014 |
| SFFGRVDSRSLP | 0.7184 ± 0.0025 |
| SFGACSTSERIN | 0.666 ± 0.07 |
| SFLPDCLSLFLF | 0.612 ± 0.058 |
| SFLTPFLLSYAT | 0.636 ± 0.0038 |
| SFLWRRSYFVFR | 0.616 ± 0.017 |
| SFPASSLPHSLL | 0.716 ± 0.043 |
| SFPLPSPSPLLP | 0.712 ± 0.05 |
| SFPPTSPTHFPL | 0.703 ± 0.031 |
| SFPRSHPPPFPP | 0.674 ± 0.012 |
| SFRDSFVNFGVF | 0.695 ± 0.045 |
| SFSPEQITCNPY | 0.598 ± 0.037 |
| SFTGSASYPKGR | 0.667 ± 0.0098 |
| SFVLKAFLTRAV | 0.765 ± 0.23 |
| SGAGRRRGGARE | 0.651 ± 0.031 |
| SGCVARTRGLSG | 0.62 ± 0.018 |
| SGDCRLPLPRSP | 0.711 ± 0.022 |
| SGEEVRSVARFF | 0.629 ± 0.035 |
| SGEVIRVTDWLV | 0.719 ± 0.038 |
| SGGGGGKEAVVR | 0.646 ± 0.019 |
| SGHGGAARRPAP | 0.733 ± 0.08 |
| SGHSRCSPALPV | 0.7123 ± 0.002 |

| Sequence | protein stability index |
| --- | --- |
| SGKKERQKTEEE | 0.645 ± 0.1 |
| SGKSSFLGAVWV | 0.711 ± 0.0061 |
| SGLLGVSIHGLR | 0.654 ± 0.053 |
| SGLRAFVVTLID | 0.673 ± 0.011 |
| SGLRHACTPKSD | 0.671 ± 0.024 |
| SGPRRECVPRSV | 0.682 ± 0.066 |
| SGRGGTGIGERV | 0.6694 ± 0.00092 |
| SGRGQQEENRRL | 0.7 ± 0.011 |
| SGSDGLLVGAPG | 0.666 ± 0.047 |
| SGSGVGVVVSEV | 0.666 ± 0.049 |
| SGSVRSCSNTCL | 0.6935 ± 0.0011 |
| SGTQSGAFSRGQ | 0.642 ± 0.081 |
| SGVGCGRSRWVW | 0.626 ± 0.029 |
| SGVVGLSTSGVV | 0.695 ± 0.063 |
| SGWSWLGLRSGL | 0.738 ± 0.025 |
| SGYSTRPLSSRS | 0.723 ± 0.041 |
| SHLSRSYPGLQL | 0.742 ± 0.027 |
| SHPLLPPHLPPP | 0.682 ± 0.082 |
| SHPPATMRAASV | 0.6646 ± 0.0043 |
| SHRYFFLAFSGL | 0.655 ± 0.02 |
| SHWCLQTQAACK | 0.65529 ± 0.00032 |
| SILPRWEFKSLS | 0.802 ± 0.06 |
| SILSRPERPLTN | 0.658 ± 0.044 |

| Sequence | protein stability index |
| --- | --- |
| SIPSIPTLHENT | 0.67593 ± 0.00066 |
| SISVLSSSSLGF | 0.741 ± 0.12 |
| SITYDRLLPHSS | 0.6594 ± 0.0063 |
| SIVRKRPRTTAT | 0.682 ± 0.031 |
| SIYNKNKKIKQK | 0.688 ± 0.07 |
| SKDFLLILDPAK | 0.662 ± 0.021 |
| SKEVVVEGKRQS | 0.715 ± 0.065 |
| SKITENTKKKGK | 0.658 ± 0.019 |
| SKKKITGGEAGH | 0.677 ± 0.046 |
| SKLQGYRKLLST | 0.567 ± 0.0065 |
| SKLVEIIMKLQG | 0.618 ± 0.055 |
| SKPYNSAIKDIT | 0.725 ± 0.096 |
| SKRCNNNRNTSN | 0.69 ± 0.044 |
| SKVLKSKSTGRG | 0.75 ± 0.11 |
| SKVLRRLEPTIV | 0.603 ± 0.04 |
| SKWGQIKRVAIR | 0.592 ± 0.038 |
| SLAPLPARAPPL | 0.725 ± 0.018 |
| SLCTAGCKNELW | 0.692 ± 0.076 |
| SLDALVDFWSRG | 0.737 ± 0.066 |
| SLDDWSAVFHVV | 0.542 ± 0.012 |
| SLDFTERHALAC | 0.709 ± 0.031 |
| SLDKCDKNNGGE | 0.733 ± 0.065 |
